From publication PMC5389570
Like-named read-outs stand apart in the source and are kept apart here.

How the values were obtained:
[1] = target: T1, RPA heterotrimer (RPA70/RPA32/RPA14) (Homo sapiens, UniProt P27694;P15927;P35244 1-616;1-270;1-121); assay: SPR
[2] = target: T1, RPA heterotrimer (RPA70/RPA32/RPA14); assay: SPR; remark: listed apart in the source
Cdc45 = target: T2, Cdc45 (Homo sapiens, UniProt O75419 1-566); assay: EMSA
T2 sequence: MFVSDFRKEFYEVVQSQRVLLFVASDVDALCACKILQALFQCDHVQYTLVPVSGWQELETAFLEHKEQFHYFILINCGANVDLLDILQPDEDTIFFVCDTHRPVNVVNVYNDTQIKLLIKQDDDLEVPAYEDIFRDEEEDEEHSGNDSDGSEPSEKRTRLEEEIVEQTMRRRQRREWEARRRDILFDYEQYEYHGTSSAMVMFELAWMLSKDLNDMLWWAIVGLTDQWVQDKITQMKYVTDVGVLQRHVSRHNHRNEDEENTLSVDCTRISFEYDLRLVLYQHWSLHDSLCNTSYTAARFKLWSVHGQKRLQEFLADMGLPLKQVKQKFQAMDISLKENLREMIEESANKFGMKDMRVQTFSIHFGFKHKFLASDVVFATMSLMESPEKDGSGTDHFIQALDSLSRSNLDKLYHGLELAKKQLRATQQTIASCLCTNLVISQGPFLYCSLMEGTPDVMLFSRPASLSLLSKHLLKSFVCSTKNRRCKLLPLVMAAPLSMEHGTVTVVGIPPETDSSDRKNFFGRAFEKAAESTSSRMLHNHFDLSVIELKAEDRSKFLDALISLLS

[3] = target: T1, RPA heterotrimer (RPA70/RPA32/RPA14); assay: EMSA
SSB = SSB (Escherichia coli, UniProt P0AGE0 1-178); assay: EMSA
SSB, sequence (P0AGE0 whole entry): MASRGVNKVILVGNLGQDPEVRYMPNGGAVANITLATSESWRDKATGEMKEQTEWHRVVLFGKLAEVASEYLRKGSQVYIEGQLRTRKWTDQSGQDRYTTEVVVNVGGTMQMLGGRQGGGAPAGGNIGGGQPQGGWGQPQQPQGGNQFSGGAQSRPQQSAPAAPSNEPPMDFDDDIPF

[4] = target: T1, RPA heterotrimer (RPA70/RPA32/RPA14); assay: EMSA; remark: listed apart in the source

T1 sequence (P27694 whole entry, chain 1 of 3): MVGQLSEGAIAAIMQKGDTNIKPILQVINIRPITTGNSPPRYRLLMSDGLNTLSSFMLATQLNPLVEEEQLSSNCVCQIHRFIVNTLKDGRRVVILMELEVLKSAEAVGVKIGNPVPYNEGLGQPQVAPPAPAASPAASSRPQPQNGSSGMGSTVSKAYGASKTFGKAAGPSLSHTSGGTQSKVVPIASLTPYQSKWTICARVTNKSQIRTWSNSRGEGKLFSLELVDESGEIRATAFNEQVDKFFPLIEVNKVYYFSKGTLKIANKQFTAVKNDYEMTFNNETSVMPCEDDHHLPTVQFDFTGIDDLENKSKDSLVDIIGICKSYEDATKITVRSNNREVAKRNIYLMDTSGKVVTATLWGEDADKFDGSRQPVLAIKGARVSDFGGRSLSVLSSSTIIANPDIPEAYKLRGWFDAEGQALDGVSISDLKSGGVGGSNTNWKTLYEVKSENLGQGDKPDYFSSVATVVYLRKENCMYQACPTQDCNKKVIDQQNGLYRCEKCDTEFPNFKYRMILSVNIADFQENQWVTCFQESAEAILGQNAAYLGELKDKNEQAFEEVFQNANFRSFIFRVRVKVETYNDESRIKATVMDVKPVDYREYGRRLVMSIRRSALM
T1 sequence (P15927 whole entry, chain 2 of 3): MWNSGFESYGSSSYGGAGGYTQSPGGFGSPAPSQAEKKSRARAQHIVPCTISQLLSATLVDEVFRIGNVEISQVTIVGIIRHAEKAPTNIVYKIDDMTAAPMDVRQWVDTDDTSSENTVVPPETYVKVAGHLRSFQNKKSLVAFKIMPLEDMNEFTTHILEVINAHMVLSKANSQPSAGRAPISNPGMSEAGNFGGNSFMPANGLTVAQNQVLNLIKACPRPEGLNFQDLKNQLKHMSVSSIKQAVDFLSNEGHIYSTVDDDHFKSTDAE
T1 sequence (P35244 whole entry, chain 3 of 3): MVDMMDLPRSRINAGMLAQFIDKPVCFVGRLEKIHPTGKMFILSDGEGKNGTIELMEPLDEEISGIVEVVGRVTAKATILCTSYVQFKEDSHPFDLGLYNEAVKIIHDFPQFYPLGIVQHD

Work on GGCTGGCATG (ssDNA) [M10-biotin (10-mer)] yielded a Kd [1] of 112 ± 14 nM and a Kd [2] of 44.1 ± 4.7 nM.

With GCTTGCATGCCTGCAGGCCAGCCTCAATCTCATC (ssDNA) [M2 (34-mer)] the binding result (Cdc45) was “no binding”, the binding signal [3] was over 5 fold vs RPA alone and the binding result (SSB) was “binds”.

For GCTTGCATGCCTGCAGGCCAGCCTCAATCTCATC (ssDNA) [M2-biotin (34-mer)], the Kd [2] was 1.53 ± 1.3 nM.

B1: M5 (67-mer; called 65-mer in text) (ssDNA)
DNA: GTACCCGGGGATCCTCTAGAGTCGACCTGCAGGCATGCAAGCTTGGCACTGGCCGTCGTTTTACAAC
In the case of B1, the binding signal [4] is reported as about 4 fold vs RPA alone.
